For 34 variants, self-cleavage results are on record in the RNAGym collection of RNA variant scans (doi:10.1093/nar/gkz1192).

Sequences and labels used below:
B1: CPEB3 Ribozyme (parent)
chain: UAACAGGGGGCCACAGCAGAAGCGUUCACGUCGCAGCCCCUGUCAGAUUCUGGUGAAUCUGCGAAUUCUGCUGUAUAUCUC

In the data set the parent is B1. In words: self-cleavage, relative activity (ratio to wild type); higher = more cleavage; in vitro, sequencing. The essentials: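 For each CPEB3 ribozyme variant, relative activity is its cleaved/total read fraction divided by the unmutated ribozyme's. Barcoded error-prone PCR libraries were transcribed by T7 RNA polymerase (5 hours, 37°C) and held in DNase I for 15 min before an EDTA stop, with cleavage occurring throughout. Template-switching reverse transcription and Illumina sequencing were used to read the RNAs. A 5-read minimum applied, and results are the mean of three batches.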
For the variant UAACAGGGGGCCACAGCAGAAGCGUUCACGUCGCAGCCCCUGUCAGAUUCUGGUGAAUCAGCGAAAUCUGCUGUAUAUCUC [U60A U66A], the self-cleavage was determined as 0.18.
To UAACAGGGGGCCACAGCAGAAGCGUUCACGUCGCAGCCCCUGUCAGAUUCUGGUGAAUCAGCGAACUCUGCUGUAUAUCUC [U60A U66C] belongs 0.34.
In the case of UAACAGGGGGCCACAGCAGAAGCGUUCACGUCGCAGCCCCUGUCAGAUUCUGGUGAAUCAGCGAAUCCUGCUGUAUAUCUC [U60A U67C] it was 0.37; in that of UAACAGGGGGCCACAGCAGAAGCGUUCACGUCGCAGCCCCUGUCAGAUUCUGGUGAAUCAGCGAAUGCUGCUGUAUAUCUC [U60A U67G], 0.79; in that of UAACAGGGGGCCACAGCAGAAGCGUUCACGUCGCAGCCCCUGUCAGAUUCUGGUGAAUCAGCGAAUACUGCUGUAUAUCUC [U60A U67A], 0.42.
In the case of UAACAGGGGGCCACAGCAGAAGCGUUCACGUCGCAGCCCCUGUCAGAUUCUGGUGAAUCAGCCAAUUCUGCUGUAUAUCUC [U60A G63C] it was 0.75; in that of UAACAGGGGGCCACAGCAGAAGCGUUCACGUCGCAGCCCCUGUCAGAUUCUGGUGAAUCAGCAAAUUCUGCUGUAUAUCUC [U60A G63A], 0.61.
Take UAACAGGGGGCCACAGCAGAAGCGUUCACGUCGCAGCCCCUGUCAGAUUCUGGUGAAUCAGCUAAUUCUGCUGUAUAUCUC [U60A G63U]: the self-cleavage is 0.53.
Turning to UAACAGGGGGCCACAGCAGAAGCGUUCACGUCGCAGCCCCUGUCAGAUUCUGGUGAAUCAGCGAAUUCUGCUGUAUAUUUC [U60A C79U], the self-cleavage is 0.69.
Consider UAACAGGGGGCCACAGCAGAAGCGUUCACGUCGCAGCCCCUGUCAGAUUCUGGUGAAUCAGCGAAUUCUGCAGUAUAUCUC [U60A U72A], for which the self-cleavage stood at 0.54.
On to UAACAGGGGGCCACAGCAGAAGCGUUCACGUCGCAGCCCCUGUCAGAUUCUGGUGAAUCAGCGAAUUCUGCGGUAUAUCUC [U60A U72G], for which the self-cleavage is 0.61.
In the case of UAACAGGGGGCCACAGCAGAAGCGUUCACGUCGCAGCCCCUGUCAGAUUCUGGUGAAUCAGCGAAUUCUGCCGUAUAUCUC [U60A U72C] it was 0.64; in that of UAACAGGGGGCCACAGCAGAAGCGUUCACGUCGCAGCCCCUGUCAGAUUCUGGUGAAUCCGCGAAUUCUGCUGUAUAUCUC [U60C], 0.54; in that of UAACAGGGGGCCACAGCAGAAGCGUUCACGUCGCAGCCCCUGUCAGAUUCUGGUGAAUCAGCGAAUUCCGCUGUAUAUCUC [U60A U69C], 0.34.
To UAACAGGGGGCCACAGCAGAAGCGUUCACGUCGCAGCCCCUGUCAGAUUCUGGUGAAUCAGCGAAUUCAGCUGUAUAUCUC [U60A U69A] belongs 0.33; to UAACAGGGGGCCACAGCAGAAGCGUUCACGUCGCAGCCCCUGUCAGAUUCUGGUGAAUCAGCGAAUUCGGCUGUAUAUCUC [U60A U69G], 0.25; to UAACAGGGGGCCACAGCAGAAGCGUUCACGUCGCAGCCCCUGUCAGAUUCUGGUGAAUCAGCGAAUUCUGCUAUAUAUCUC [U60A G73A], 1.16.
In the case of UAACAGGGGGCCACAGCAGAAGCGUUCACGUCGCAGCCCCUGUCAGAUUCUGGUGAAUCCGCGCAUUCUGCUGUAUAUCUC [U60C A64C] it was 0.61.
In the case of UAACAGGGGGCCACAGCAGAAGCGUUCACGUCGCAGCCCCUGUCAGAUUCUGGUGAAUCAGCGAAUUCUGCUGUAUAUCUG [U60A C81G], the self-cleavage was 0.93.
In the case of UAACAGGGGGCCACAGCAGAAGCGUUCACGUCGCAGCCCCUGUCAGAUUCUGGUGAAUCAGCGAAUUCUGCUGUAUAUCUU [U60A C81U], the self-cleavage came out at 0.76.
Turning to UAACAGGGGGCCACAGCAGAAGCGUUCACGUCGCAGCCCCUGUCAGAUUCUGGUGAAUCAGCGAAUUCUACUGUAUAUCUC [U60A G70A], the self-cleavage amounted to 0.52.
To UAACAGGGGGCCACAGCAGAAGCGUUCACGUCGCAGCCCCUGUCAGAUUCUGGUGAAUCAGCGAAUUCUGCUGUAUAUCAC [U60A U80A] belongs 0.59; to UAACAGGGGGCCACAGCAGAAGCGUUCACGUCGCAGCCCCUGUCAGAUUCUGGUGAAUCAGCGAAUUCUGCUGUAUAUCCC [U60A U80C], 0.63.
To UAACAGGGGGCCACAGCAGAAGCGUUCACGUCGCAGCCCCUGUCAGAUUCUGGUGAAUCAGCGAAUUCUGCUGUAUAUCGC [U60A U80G] belongs 0.84; to UAACAGGGGGCCACAGCAGAAGCGUUCACGUCGCAGCCCCUGUCAGAUUCUGGUGAAUCAUCGAAUUCUGCUGUAUAUCUC [U60A G61U], 0.38.
To UAACAGGGGGCCACAGCAGAAGCGUUCACGUCGCAGCCCCUGUCAGAUUCUGGUGAAUCACCGAAUUCUGCUGUAUAUCUC [U60A G61C] belongs 0.22.
On to UAACAGGGGGCCACAGCAGAAGCGUUCACGUCGCAGCCCCUGUCAGAUUCUGGUGAAUCAGCGAAUUCUGCUGAAUAUCUC [U60A U74A], for which the self-cleavage was determined as 0.75.
Take UAACAGGGGGCCACAGCAGAAGCGUUCACGUCGCAGCCCCUGUCAGAUUCUGGUGAAUCAGCGAAUUCUGCUGGAUAUCUC [U60A U74G]: the self-cleavage is 0.91.
In the case of UAACAGGGGGCCACAGCAGAAGCGUUCACGUCGCAGCCCCUGUCAGAUUCUGGUGAAUCAGCGAAUUCUGCUGCAUAUCUC [U60A U74C] it was 1.04; in that of UAACAGGGGGCCACAGCAGAAGCGUUCACGUCGCAGCCCCUGUCAGAUUCUGGUGAAUCAGCGAAUUCUGCUGUAUACCUC [U60A U78C], 0.44; in that of UAACAGGGGGCCACAGCAGAAGCGUUCACGUCGCAGCCCCUGUCAGAUUCUGGUGAAUCAGCGAAUUCUGCUGUAUAGCUC [U60A U78G], 0.38.
To UAACAGGGGGCCACAGCAGAAGCGUUCACGUCGCAGCCCCUGUCAGAUUCUGGUGAAUCAGCGAAUUCUGCUGUAUAACUC [U60A U78A] belongs 0.72; to UAACAGGGGGCCACAGCAGAAGCGUUCACGUCGCAGCCCCUGUCAGAUUCUGGUGAAUCAGCGAAUUCUGCUGUAAAUCUC [U60A U76A], 0.61.
In the case of UAACAGGGGGCCACAGCAGAAGCGUUCACGUCGCAGCCCCUGUCAGAUUCUGGUGAAUCAGCGAAUUCUGCUGUACAUCUC [U60A U76C] it was 0.56.
